Reference: article PMC11480844 (2024)

B1: H2-Kb / Ed46 (parent complex)
chain 1: AQSVTQPDARVTVSEGASLQLRCKYSYFGTPYLFWYVQYPRQGLQLLLKYYPGDPVVQGVNGFEAEFSKSNSSFHLRKASVHWSDWAVYFCAVGRTGGYKVVFGSGTRLLVSP
chain 2: DSGVVQSPRHIIKEKGGRSVLTCIPISGHSNVVWYQQTLGKELKFLIQHYEKVERDKGFLPSRFSVQQFDDYHSEMNMSALELEDSAMYFCASSPRHSDYTFGSGTRLLVI
chain 3: not shown
chain 4: IQKTPQIQVYSRHPPENGKPNILNCYVTQFHPPHIEIQMLKNGKKIPKVEMSDMSFSKDWSFYILAHTEFTPTETDTYACRVKHDSMAEPKTVYWDRDM
chain 5: SIINFEKL
B2: H2-Kb / Ed31 (parent complex)
chain 1: GQQVQQSPASLVLQEGENAELQCNFSTSLNSMQWFYQRPGGSLVSLFYNPSGTKHSGRLTSTTVIKERRSSLHISSSQTTDSGTYLCALEGNYAQGLTFGLGTRVSVFP
chain 2: ETAVFQTPNYHVTQVGNEVSFNCKQTLGHDTMYWYKQDSKKLLKIMFSYNNKQLIVNETVPRRFSPQSSDKAHLNLRIKSVEPEDSAVYLCASRSAGEQYFGPGTRLTVL
chain 3: not shown
chain 4: B1 chain 4
chain 5: SIINFEKL
Further: test concentration or dose not given here.

Variants of: B1
Test: % of reporter cells activated (NFAT-GFP), raw
A ratio to parent of 1.32 was found for chain 5 F5S in this work.
A ratio to parent of 1.02 was found for chain 5 F5M in this work.
A ratio to parent of 1.18 was found for chain 5 F5R in this work.
A ratio to parent of 1.19 was found for chain 5 F5C in this work.
A ratio to parent of 1.17 was found for chain 5 F5L in this work.
A ratio to parent of 1.09 was found for chain 5 L8K in this work.
A ratio to parent of 1.07 was found for chain 5 L8Y in this work.
A ratio to parent of 0.861 was found for chain 5 L8A in this work.
A ratio to parent of 0.613 was found for chain 5 L8C in this work.
A ratio to parent of 1.07 was found for chain 5 L8I in this work.
A ratio to parent of 0.038 was found for chain 5 E6W in this work.
A ratio to parent of 0.16 was found for chain 5 E6L in this work.
A ratio to parent of 0.534 was found for chain 5 E6A in this work.
A ratio to parent of 0.2 was found for chain 5 K7I in this work.
A ratio to parent of 0.178 was found for chain 5 K7L in this work.
A ratio to parent of 0.0775 was found for chain 5 K7Q in this work.
A ratio to parent of 0.138 was found for chain 5 K7N in this work.
A ratio to parent of 0.0252 was found for chain 5 K7C in this work.
A ratio to parent of 0.628 was found for chain 5 K7W in this work.
A ratio to parent of 0.00395 was found for chain 5 K7E in this work.
A ratio to parent of 0.202 was found for chain 5 I3G in this work.
A ratio to parent of 0.924 was found for chain 5 I3K in this work.
A ratio to parent of 0.446 was found for chain 5 I3M in this work.
A ratio to parent of 0.998 was found for chain 5 I3H in this work.
A ratio to parent of 0.17 was found for chain 5 I3D in this work.
A ratio to parent of 1.08 was found for chain 5 I3Y in this work.
A ratio to parent of 0.245 was found for chain 5 I3R in this work.
A ratio to parent of 0.47 was found for chain 5 I3E in this work.
A ratio to parent of 0.00841 was found for chain 5 N4T in this work.
A ratio to parent of 0.0119 was found for chain 5 N4W in this work.
A ratio to parent of 0.317 was found for chain 5 N4R in this work.
A ratio to parent of 0.00538 was found for chain 5 N4M in this work.
A ratio to parent of 0.00841 was found for chain 5 N4P in this work.
A ratio to parent of 0.0186 was found for chain 5 N4Y in this work.
A ratio to parent of 0.027 was found for chain 5 N4K in this work.
A ratio to parent of 0.0593 was found for chain 5 N4L in this work.
A ratio to parent of 0.0634 was found for chain 5 S1C in this work.
A ratio to parent of 0.0395 was found for chain 5 S1N in this work.
A ratio to parent of 0.973 was found for chain 5 S1H in this work.
A ratio to parent of 0.0256 was found for chain 5 S1V in this work.
A ratio to parent of 0.278 was found for chain 5 S1T in this work.
A ratio to parent of 0.0427 was found for chain 5 S1P in this work.
A ratio to parent of 0.746 was found for chain 5 S1A in this work.
A ratio to parent of 1.4 was found for chain 5 I2A in this work.
A ratio to parent of 0.898 was found for chain 5 I2N in this work.
A ratio to parent of 1.11 was found for chain 5 I2R in this work.
A ratio to parent of 0.656 was found for chain 5 I2Y in this work.
A ratio to parent of 1.13 was found for chain 5 I2F in this work.
A ratio to parent of 1.39 was found for chain 5 I2T in this work.

Variants of: B2
Test: % of reporter cells activated (NFAT-GFP), raw
A ratio to parent of 0.0173 was found for chain 5 E6A in this work.
A ratio to parent of 0.25 was found for chain 5 E6M in this work.
A ratio to parent of 0.00349 was found for chain 5 E6R in this work.
A ratio to parent of 0.892 was found for chain 5 F5H in this work.
A ratio to parent of 0.859 was found for chain 5 F5V in this work.
A ratio to parent of 0.829 was found for chain 5 F5W in this work.
A ratio to parent of 0.821 was found for chain 5 F5L in this work.
A ratio to parent of 0.917 was found for chain 5 F5M in this work.
A ratio to parent of 0.529 was found for chain 5 F5G in this work.
A ratio to parent of 0.127 was found for chain 5 N4F in this work.
A ratio to parent of 0.498 was found for chain 5 S1W in this work.
A ratio to parent of 0.163 was found for chain 5 S1N in this work.
A ratio to parent of 0.898 was found for chain 5 S1M in this work.
A ratio to parent of 0.757 was found for chain 5 S1Q in this work.
A ratio to parent of 0.375 was found for chain 5 I3D in this work.
A ratio to parent of 0.355 was found for chain 5 I3W in this work.
A ratio to parent of 0.982 was found for chain 5 I3V in this work.
A ratio to parent of 0.779 was found for chain 5 L8P in this work.
A ratio to parent of 0.602 was found for chain 5 L8C in this work.
A ratio to parent of 0.812 was found for chain 5 L8V in this work.
A ratio to parent of 0.687 was found for chain 5 L8E in this work.
A ratio to parent of 0.863 was found for chain 5 I2W in this work.
A ratio to parent of 0.851 was found for chain 5 I2R in this work.
A ratio to parent of 1.07 was found for chain 5 I2C in this work.
A ratio to parent of 0.897 was found for chain 5 I2Q in this work.
A ratio to parent of 0.104 was found for chain 5 K7M in this work.
